Measurements as given in a protein production outcome set (Wang et al. 2014).

Assay: label from the status in PepcDB records

Question: For “MIKKFKNYDQIIKELFVIAIPTAFESLLFQMVTFFDNFMISYLGSFHVTGVSLANRVTFLFFIIVFGLGTALSAYVSQAIAKKKFLQVRQSFAYILLIGTTIGIIFFIFSFLFPRNIIKLFTANQDSLNFGSEYLKIISLSYVLMAYSFLSAMGFKSAKEVKIPLYVTSIVVLINIVFNYILIFGFSMGIKGAAYATVLARIVEFVFYFLYSLISSNSYYRIKFGDFFAPKVVTRANLKLIIPVLSHEIFWVLSITILHAFYARVGSIEYASFAVASNLFDICFVLLHGMGLATGVVIGHLMIYDKKHVRSVGFFLSFLGFLLGIFVVILLIGISSFAPYIFSKLDSPELVSVFIYVFASIVIFKAFTAQVLVGVFRASGIPNVCFFIESGVIVFYTLPVAYLLVFYTNLSLPIVVFIVNLEEIIKNIFIIIEFFHDDWIREIEYEELA”, which protein production is on record?
Answer: Its protein production is “failed”.

Question: Which protein production does the source give for “MIKLKNDRLEVEIDNMGAQLTHVIGNESGYDYIWNGDAWKKHAPILFPAIGKSNNDEYVVDGKTYRMPQHGFARDFDWQKVNQAENRVMLELKSNAKTKEMFPFDFTLQVEYKLDQNQLLIGYRVINNDQRMMPYALGSHPAFNLPIDDDGVFEDYRLTFGPKQKQIKRLGVGPIPFRDGTEAPYPSIQASELALNHEMFDDGLIILNAKKLENVTLHSNQTAHEVKLNIKQFPYLTLWAMEHETQPFICIEPFAGLPDQASDQPTDWNNKKGNNLLEAGESHTFEYGIEFK” here?
Answer: Its protein production is “failed”.

Question: For “MIKLNRDQKLTYKFLIIPIALLILSFNPYTESLEFSLPAVYMASHYAVYFSGLYIGYKYFKGGYISLILGLIPAVLWHSPYFFSLGAAMLDYRILLEITLLFGGVLLGSSINSMRLQIKITLLALWMLGDSILAILFITSTPLYSNLAYPFSPYTPSSLPLAGILMFVIMNVFLIYVISKFMKSIIG”, which protein production is on record?
Answer: The protein production was “failed”.

Question: Which protein production does the source give for “MIKRLKVNVIDLSSLVYLIFAVIPLFTFDLKGPYWMYVIIFIIFTISYTALAIFTEVLSTKMIYTFLILHYIGITYLVYSVGPATSLFFFFSSFILPYVLKVKMKSIAFLIFIVVMLINFILIYVADPLSLGFIAVMHIAILLITVGNFKQSETIKMKNALEEKNKHINVLIAEQERNRIGQDLHDTLGHVFASSSIKSELAIKLIDSDSEKAKLQMIEVNNISKESLNKVRSIVNDLKIQSFEEEVASMETLLKNANLNFEFFNAELAKGISPAKQAILAMILREAINNVLKHAHATSVTGSLTETQNDITLTIIDNGIGMDDLKEHDLKSIKERVALMNGSIEIQSNHGLCISIKISRGDA” here?
Answer: Its protein production is “failed”.

Question: For “MIKRLTISPLFLILSLIAYYLSRNDILLYSTLSTILFWTFIILILPTSFYNYIKDGIVKYCKKKIFWFTVGLYISYHVILYSFFFYLLLPGSIKNISFWFSFNAGIGYSIPPPITYFLEWVSNSPAIWFFIGPYEGDVIPFSTFLGVVLALLIGLNVMKILELWGISNKLSKSIVLIPSLGVVSGSSCCVFLPSIVMYSIALSISSITATILSILSSFAYFILAYYALPIVSAIVLFHNLTMLNRLIKKLSFTM”, which protein production is on record?
Answer: The protein production was “failed”.

Question: For “MIKSSSKIGLAFFVRPQFDVDLAKNFFNKVQDSLKEAGIATQVFELPVSTDAEALSLAESVNSHQDLHGLIVVQGTFCDASLILNLASNINLPIMIWATKEQPTGGRLSLNSFCGLNLGAHTLVNAGIKFKGVYGSPGSPAVIKKVTSFARAAGAVKWLKGKRIGLFGHRPSGYYPSNFNEILLRKQFGITVEYLSLSEVFSLAQKMEIKDIQPFINTLVGVEGLEMVSTSKSVQAYLALKELIAQKALDAVAVECWPEFMAGFGGAVCYALSRLNDEGIVAACEADVNGAVTMLLGSYLSSQANFIADLVGAEEEQNQLIFWHCGNGPLSLAAPGTNPVAGVHPNRKTPLAMYFPLKGGPVTVSRLSSDHNGNLRLFLGSGTGIETDLLYSGNSLPIQISGSVEETLDTILCEGIEHHYIVTYGDLTSEFREIAELLGLRMITFLEHHHHHH”, which protein production is on record?
Answer: Its protein production is “failed”.

Question: With “MILAIDLGTSGAKAAIIDSAGAVHEQTFVPYSTTKLPNGGVEQDPMQWVSAARQAVTRLPRSYSVVSFTGQMQDLICLDRAGRPLGQALLYNDARAAAEAARLNTVVPEWKDITGNRQTATSTAAMWLRLMEQSD” as the sequence, how does the protein production read?
Answer: Its protein production is “failed”.

Question: With “MILEFKSEKKMINFSKSFFYPLPIGKIFVLSGDMGSGKTSFLKGLALNLGISYFTSPTYNIVNVYDFINFKFYHIDLYRVSSLEEFELVGGLEILMDLDSIIAIEWPQIALSIVPKDRLFSLTFKIVGSGRVVELNGLEHHHHHH” as the sequence, how does the protein production read?
Answer: The protein production was “not failed”.

Question: Which protein production does the source give for “MILGIDIGGANTKITELHENGEFKVHHLYFPMWKNNDKLAEVLKTYSKDISHVALVTTAELADSYETKKEGVDNILNAAESAFGSNISVFDSDGNFISLEGAKTNYMKVSASNWCGTAKWVSKNIEENCILVDMGSTTTDIIPIVDGKVVAEKTDLERLMNHELLYVGTLRTPISHLGNTILFKGVNTNVSSEYFAITADISVVLEKVTTEEYTCDTPDGKGTDKRSSLVRISKVLCSDLDQISEIDAENIAKTYYELWKELILENVKKVAEKYGSKKVVITGIGENILKDALGDFEVISVAERYGKDVSLATPSFAVAELLKNELLEHHHHHH” here?
Answer: Its protein production is “not failed”.

Question: With “MILINKRAEKQDYQTILAIWEKSVIVTHDFLTAEDRQFYKEQIPLFLDNVELFLWFAGEEVIGFSGTSERELDMLFLDPVATGNGYGSQILGWLIENKRINLVDVNEQNENATRFYLKHGFVVSSRSDLDGFGKPYPILQLQLK” as the sequence, how does the protein production read?
Answer: Its protein production is “not failed”.

Question: With “MILKRAYDVTPQKISTDKVRGVRKRVLIGLKDAPNFVMRLFTVEPGGLIDRHSHPWEHEIFVLKGKLTVLKEQGEETVEEGFYIFVEPNEIHGFRNDTDSEVEFLCLIPKEGGE” as the sequence, how does the protein production read?
Answer: The protein production was “not failed”.

Question: For “MILLKSLYKGFFAAMKEENFEARCYNREKGGCVLIKTMQYKKTMATVVALIVALLLFGLIYDLLGVQKNELAAQKSAQPKVKTARVVANGDILIHDILYMSARKADDTYDFTPYFEYVKDWISGADLAIGDYEGTISPDYPLAGYPLFNAPEEIAGALKNTGYDVVDLAHNHILDSQLDGALNTKKVFHQLGIDSIGIYDKDRSKESFLIKNVNGIKIAILGYSYGYNGMEATLSQEDYEKHMSDLDEAKIKKELQLAEKKADVTIVMPQMGTEYALEPTAEQKELYHKMIDWGADVVLGGHPHVIEPSETVIKGRQKKFIIYSMGNFISNQRLETVDDIWTERGLLMDLTFEKKDNKTKIKTVEAHPTMVLAKGKGIVGKEGFELYNYRTMVLEDFIKGGKYHDKIDEETKAKVALAYQEINDLVNLKW”, which protein production is on record?
Answer: The protein production was “failed”.

Question: With “MILLTSVLAIVSVILLTLPLLEAYSLNSSLVGGAVSPGATYSYKMNAVLINFYHNNSISHLLGNFSFTTGYINITMENGYATFSVKLYGQPAGENVTLADSFVLKASDHSSLFESFFPSGLVEAGEFVNVFNNTGQYYGAASAFSSVNVGKGTLFSTSQMVKLINVPEQPSGYFENVSRELNANSVYYIESPSHSFLSHIVFTGNSTVISALLGSSSVSNVTLLYISLEKTDVAVETLNVMHYVMHYIAVVVILWILGVVYMISLYRRVSLKQRR” as the sequence, how does the protein production read?
Answer: The protein production was “failed”.

Question: Which protein production does the source give for “MILNILLNLAIFIIPSLAVWNQIILYIFGKSGDIANLILLNNESNLPKLSIIVPTKGERIEVIQGLIDNIHEAIWDRNKLEIIIVSDDEQEYFDKLLSTLIIPPDLDVRIFRREKKLGYKSGALAFGLQKSTGDLILTLDVDARIEKDSLIKAYNHMVNLGCDAITMEWHGYSNISTSLAKALMVSTVLTSKSILRGRDKLGLKVLPIGCGTIYKRSALEAVNGWDYKMIQDDYELGARLINKGFKVCASSSPVYVEVPDNLIAFYVQQTRWAMGTMEVLYWRFKYIISSDIKLWQKLEIIAYLSQYIPIILTFISAIIFAIAGFVGIRLSMNLPMFIIWAITLSIYASIFVNSAKKSGIDTVTAIKALGRLSAYTVGISPFLLIGTINAFKKTRTYIVTPKGKKAKSNIGYPILAFGVFFILSAFLYMFRGDFLTFIWLAYYSIAFLYTFIAYIKGL” here?
Answer: Its protein production is “failed”.

Question: For “MILSAEQSFTLRHPHGQAAALAFVREPAAALAGVRFLRGLDSDGEQVWGELLVTVPLLGEVDLPFRSEIVRTPQGAELRPLTLTGERAWVAVSGQATAAEGGEMAFAFQFQAHLATPEAEGWGGAAFEKMVQAAAGRTLERVAKALPEGLAAGLPPA”, which protein production is on record?
Answer: Its protein production is “not failed”.
